B1: PMP1C7 (VHH)
VHH: QVKLEESGGGLVQAGGSLRLSCVASGRTFSRTAMAWFRQAPGKEREFVATITWNSGTTRYADSVKGRFFISKDSAKNTIYLEMNSLEPEDTAVYYCAATAAAVITPTRGYYNYWGQGTQVTVSS
notes: Anti-IGF-IR Nanobody; tag not described; also called IGFRPMP1C7
B2: 27-10-E8 (VHH)
VHH: EVQLVESGGGLVQAGGSLRLSCAASGRTFSTYTMAWFRQAPGKEREFVQGISRSDGGTYDADSVKGRFTISRDNAKNTVYLQMNSLKPEDTAVYFCAAASVKLVYVNPNRYSYWGQGTQVTVSS
notes: Anti-EGFR Nanobody, tested as periplasmic extract or IMAC purified protein; tag not described; also called Type A Nanobody
B3: PMP7A5 (VHH)
VHH: EVQLVESGGGLVQAGGSLRLSCAASDRTFSSNNMGWFRQAPGKEREFVAAIGWGGLETHYSDSVKGRFTISRDNAKNTVYLQMNSLKPEDTARYYCAVSSTRTVIYTLPRMYNYWGQGTQVTVSS
notes: Anti-EGFR Nanobody; tag not described; also called EGFRPMP7A5
B4: PMP7E12 (VHH)
VHH: EVQLVESGGGLVQAGGSLRLSCTASGRTFENNAMAWFRQAAGKEREFVAGFSGSGGATYYAHSVEGRFTISRDNAKNTVDLQMNSLSLEDTAVYLCAARRKSGEVVFTIPARYDYWGQGTQVTVSS
notes: Anti-EGFR Nanobody
B5: PMP38G7 (VHH)
VHH: EVQLVESGGGLVQAGGSLRLSCAASGRTFSSYVMGWFRQATGKEREFVATIAWDSGSTYYADSVKGRFTISRDNAKNTVHLQMNSLKPEDTAVYYCAASYNVYYNNYYYPISRDEYDYWGQGTQVTVSS
notes: also called Nanobody family VIII
B6: PMP9C1 (VHH)
VHH: EVQLVESGGGLVQAGGSLRLSCAASGRTFSGFAMGWFRQAPGKEREFVAAISWSGGSLLYVDSVKGRFTISRDNAKNTVHLQMNSLKPGDTAVYYCAAMVGPPPRSLDYGLGNHYEYDYWGQGTQVTVSS
notes: Anti-EGFR Nanobody; tag not described; also called Nanobody family X; Type C Nanobody

Tests used:
[1] = biological target: T1, recombinant human IGF-IR (rhIGFIR) (human, UniProt P08069 31-932, limits assumed); experiment: SPR (BIAcore), immobilized IGF-IR
T1 construct: Bought; also called immobilized IGF-IR

purified EGFR (Sigma) = biological target: T2, purified EGFR (Sigma) (human, UniProt P00533 25-1210, limits assumed)
T2 construct: Bought; purified from human A431 cells; also called solid phase coated EGFR

[2] = biological target: T3, EGFR expressed on cells and on A431 derived membrane vesicles (human, UniProt P00533 25-1210)
T3 construct: whole, on cells; Used for assays on whole cells and on immobilised A431 membrane vesicles; also called EGF receptor; EGFR harboring A431 vesicles

Row | Binder | koff (purified EGFR (Sigma)) | other results
1 | B1 | – | koff [1]: 0.0019 s⁻¹
2 | B2 | ≤ 0.0017 s⁻¹ | –
3 | B3 | ≤ 0.0017 s⁻¹ | –
4 | B4 | ≤ 0.0017 s⁻¹ | –
5 | B5 | ≤ 0.0017 s⁻¹ | –
6 | B6 | – | binding result [2]: binds
